The values below come from article PMC3213697.

Common to all, as to test: SEC; gel filtration chromatography of the refolded precursor proteins after heparin affinity chromatography; peak D, dimer
Test [1] deals with C313A myostatin precursor protein (UniProt O14793).
In test [2] the target is C313Y myostatin precursor protein (UniProt O14793).
Test [3] addresses C374A myostatin precursor protein (UniProt O14793).

Turning to “C313A myostatin precursor protein (from UniProt O14793 24-375) (natural protein)”, in test [1], the stoichiometry N (in general, the number of molecules, sites or subunits per partner or assembly) was found to be 2. In test [2], “C313Y myostatin precursor protein (from UniProt O14793 24-375) (natural protein)” came in with a stoichiometry N of 2.

“C374A myostatin precursor protein (from UniProt O14793 24-375) (natural protein)”: the stoichiometry N in test [3] amounted to 2.
